From PMC5591402

B1: wild-type N2 VHH antibody mutant G52aA [camelid] / TAMRA-labeled α-synuclein peptide [modified: tetramethylrhodamine (TAMRA) fluorophore, position not stated; tetramethylrhodamine (TAMRA) fluorophore, position not stated] [not stated] (parent)
chain 1: GQLVESGGGSVQAGGSLRLSCAASGIDSSSYCMGWFRQRPGKEREGVARINGLGGVKTAYADSVKDRFTISRDNAENTVYLQMNSLKPEDTAIYYCAAKFSPGYCGGSWSNFGYWGQGTQVTVSSH
chain 2: GYQDYEPEA

Variants of: B1
Assay: fluorescence polarization
Conditions: with TAMRA-labeled α-synuclein peptide [modified: tetramethylrhodamine (TAMRA) fluorophore, 400 nM VHH, 2 nM TAMRA-labeled α-synuclein peptide, parent: 1, read off a plot

ratio to parent | Variant
-0.01 | chain 1 G52A
0.07 | chain 1 Y104A
0.41 | chain 1 I50A
0.015 | chain 1 N51A
0.1 | chain 1 K57A
0.075 | chain 1 W109A
0.015 | chain 1 G55A
